Laboratory results: patent publication US20210047398A1, “ASPROSIN, A FAST-INDUCED GLUCOGENIC PROTEIN HORMONE” (Baylor College of Medicine, priority 2016, published 2021)

Test: Food intake, energy expenditure and body composition after asprosin gain-of-function
Assay type: in vivo, mice
Description: Mouse food intake and energy expenditure—Food intake and energy expenditure were measured using the CLAMS System (Comprehensive Lab Animal Monitoring System, Columbus Instruments). Animals were acclimatized in the recording chambers for 48-72 hours, and measurements were taken subsequently for 24 hours during the light cycle and dark cycle. Mice received food and water ad libitum, or after an overnight fast where indicated. Oxygen consumption and food intake were recorded.
As previously described (Yan et al., 2016), male mice were anesthetized with inhaled isoflurane and stainless steel cannulas (Plastics One) were inserted into the lateral ventricles (0.34 mm caudal and 1 mm lateral from bregma; depth, 2.3 mm). […] These mice received 10 ng GFP ([…]) twice a day for 3 continuous days, and 10 ng asprosin (in […]) the last day. The BioDAQ food intake monitoring system (Research Diets, Inc) was used to monitor the food intake, and the food intake from the last GFP injection and asprosin were compared.
Mouse body composition—Body composition was analyzed using an ECHO-MRI system (Echo medical systems, Texas) or DEXA scans where indicated. Lean mass, fat mass, and overall body weight were calculated using the manufacturer-provided software.

[1] = daily subcutaneous doses for 10 days

B1: recombinant asprosin: 146 amino acid E. coli expressed fusion protein: 6 amino acid N-terminal His tag and 140 amino acid wild type asprosin (FBN1 2732-2871) (protein)
chain: HHHHHHSTNETDASNIEDQSETEANVSLASWDVEKTAIFAFNISHVSNKVRILELLPALTTLTNHNRYLIESGNEDGFFKINQKEGISYLHFTKKKPVAGTYSLQISSTPLYKKKELNQLEDKYDKDYLSGELGDNLKMKIQVLLH
orexigenic effect in mice with AgRP neuron ablation (IP injection, 24 hours cumulative food intake): completely eliminated | adiposity (fat mass) [1]: increase in adiposity | energy expenditure [1]: no change in energy expenditure | food intake [1]: expected hyperphagia | food intake after intracerebroventricular (ICV) injection (dark phase, 10 ng ICV): orexigenic effect | food intake (FIG. 17) (mice injected with asprosin): hyperphagia | hypophagia of NPS mice (single subcutaneous dose): sufficient to completely rescue the hypophagia | latent phase prior to orexigenic effect (single subcutaneous dose): latent phase of several hours | food intake over the next 24-hr (single subcutaneous dose, C57Bl/6 mice, vs GFP): greater food intake
